Assay results reported in patent publication US20050227296A1, “Method for indentifying integrin antagonists” (The General Hospital Corporation, a Massachusetts …, priority 1988, published 2005).

Biological target: T1, EAiC3b (erythrocytes coated with iC3b) (Homo sapiens, UniProt P01024)
T1 construct: EAiC3b (erythrocytes coated with iC3b) were generated by treating EAC3b with purified human factors H and I; tissue Sigma Chemical Co. (C5-deficient human serum); host or cells: human serum C3 deposited on IgM-coated erythrocytes
Experiment: Erythrocyte binding assay, EAiC3b on immobilized proteins or peptides
Conditions: 37° C., divalent cations
Protocol: Erythrocytes (E) coated with rabbit anti-E IgM (EA) or C3b (EAC3b) were prepared as described by Dana et al. (J. Immunol. 73:153, 1984). EAiC3b (erythrocytes coated with iC3b) were generated by treating EAC3b with purified human factors H and I, or alternatively prepared from EA using C5-deficient human serum (Sigma Chemical Co., St. Louis, Mo.). EAiC3b cells were washed and stored in isotonic veronal-buffered saline (VBS^2+), pH 7.4, containing 0.15 mM calcium-1 mM magnesium (MgCl2+CaCl2) and 1 mg/ml Soybean Trypsin Inhibitor (STI; Worthington Biochemical Co., Freehold, N.J.) at 1.5×10^8 cells/ml. […]
Immobilization of recombinant proteins and peptides: Purified recombinant A-domain was added to Immulon-2 96-well microtiter plates (Dynatech) overnight. […] Binding of the anti-CD11b mabs to the coated rA-domain was measured by ELISA and read using a plate reader (Molecular Dynamics).
Erythrocyte binding assays: Fluoresceinated EAiC3b, EAC3b or EA were resuspended to 1.5×10^8/ml in buffer A, and added […] to wells containing immobilized proteins or peptides in a total volume of 100 ml. […] Fluorescence was quantified (excitatory wavelength, 490 nm, emission wavelength, 510 nm) using a SLM 8000 fluorometer (SLM Instruments, Urbana, Ill.). […] The effect of temperature was evaluated in the presence of 1 mM MnCl2 at 37° C. and at 4° C.

T1 sequence (P01024 749-1303 limits assumed): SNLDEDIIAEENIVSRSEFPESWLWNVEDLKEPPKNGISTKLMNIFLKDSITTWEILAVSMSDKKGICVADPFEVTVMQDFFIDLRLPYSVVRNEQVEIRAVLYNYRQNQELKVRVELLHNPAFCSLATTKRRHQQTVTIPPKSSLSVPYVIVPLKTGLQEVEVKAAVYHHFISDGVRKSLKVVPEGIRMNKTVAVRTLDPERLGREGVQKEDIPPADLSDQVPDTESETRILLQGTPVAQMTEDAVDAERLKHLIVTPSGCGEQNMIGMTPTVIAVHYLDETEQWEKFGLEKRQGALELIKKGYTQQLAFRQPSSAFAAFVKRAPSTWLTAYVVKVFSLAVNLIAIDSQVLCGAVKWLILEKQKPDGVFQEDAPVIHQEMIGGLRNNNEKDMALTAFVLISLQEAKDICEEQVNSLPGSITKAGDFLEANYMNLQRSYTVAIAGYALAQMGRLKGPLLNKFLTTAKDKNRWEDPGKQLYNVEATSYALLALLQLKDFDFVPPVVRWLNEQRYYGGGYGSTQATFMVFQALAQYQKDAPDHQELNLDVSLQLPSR
T1 sequence (P01024 23-667 partner limits assumed): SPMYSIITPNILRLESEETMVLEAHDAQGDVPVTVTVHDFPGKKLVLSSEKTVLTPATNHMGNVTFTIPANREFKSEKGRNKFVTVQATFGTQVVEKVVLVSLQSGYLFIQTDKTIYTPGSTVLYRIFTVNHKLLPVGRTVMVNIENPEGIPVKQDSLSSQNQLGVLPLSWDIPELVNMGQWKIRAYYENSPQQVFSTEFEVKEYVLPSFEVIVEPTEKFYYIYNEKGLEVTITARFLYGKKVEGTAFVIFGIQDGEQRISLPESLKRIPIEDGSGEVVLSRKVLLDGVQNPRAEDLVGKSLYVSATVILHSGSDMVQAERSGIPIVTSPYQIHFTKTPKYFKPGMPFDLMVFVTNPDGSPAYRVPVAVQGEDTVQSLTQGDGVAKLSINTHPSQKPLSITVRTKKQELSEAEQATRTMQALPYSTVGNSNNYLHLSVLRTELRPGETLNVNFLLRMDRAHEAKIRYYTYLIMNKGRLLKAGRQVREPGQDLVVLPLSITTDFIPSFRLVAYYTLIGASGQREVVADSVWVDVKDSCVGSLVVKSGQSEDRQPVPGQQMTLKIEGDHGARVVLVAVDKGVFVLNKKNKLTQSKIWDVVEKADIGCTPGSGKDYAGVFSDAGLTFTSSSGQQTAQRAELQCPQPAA
T1 sequence (P01024 1321-1663 partner limits assumed): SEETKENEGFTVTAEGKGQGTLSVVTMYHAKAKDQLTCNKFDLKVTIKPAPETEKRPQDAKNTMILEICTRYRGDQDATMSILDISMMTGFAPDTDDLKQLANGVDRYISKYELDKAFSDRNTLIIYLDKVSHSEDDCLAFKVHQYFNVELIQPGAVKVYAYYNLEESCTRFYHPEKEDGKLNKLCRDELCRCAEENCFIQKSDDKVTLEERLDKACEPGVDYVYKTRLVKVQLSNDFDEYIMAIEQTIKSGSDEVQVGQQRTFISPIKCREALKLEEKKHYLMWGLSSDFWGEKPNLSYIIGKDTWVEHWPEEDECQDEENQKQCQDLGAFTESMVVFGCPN

B1: r11aA: recombinant CD11a A domain expressed as GST fusion protein (protein)
chain: GNVDLVFLFDGSMSLQPDEFQKILDFMKDVMKKLSNTSYQFAAVQFSTSYKTEFDFSDYVKRKDPDALLKHVKHMLLLTNTFGAINYVATEVFREELGARPDATKVLIIITDGEATDSGNIDAAKDIIRYIIGIGKHFQTKESQETLHKFASKPASEFVKILDTFEKLKDLFTELQKKIY
direct binding of EAiC3b to immobilized protein or peptide (listed as rA-domain derived from CD11a/CD18): did not bind | direct binding of EAiC3b to immobilized protein or peptide (listed as rCD11a A-domain): lack of binding
